Consider 125 sequences from the supplement of paper PMC9112550, “Optimization of the antimicrobial peptide Bac7 by deep mutational scanning” (BMC Biology, 2022).

This data set deals with Escherichia coli TOP10. Briefly: shrunken log2 fold change of peptide-encoding DNA abundance (4.5 h post-induction vs induction); higher = less antimicrobial activity (less host growth inhibition). Conditions: time post-induction: 4.5 h; library: site-saturation at positions 5, 18, 19, 20.
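Note: peptides expressed intracellularly from a pBAD plasmid library in pooled LB shake-flask culture, induced with 0.3% L-arabinose, DNA abundance read by NGS, three biological replicates, DESeq2 with apeglm shrinkage.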

For the sequence RRIRTRPPRLPRPRPRPAVVPRP, the “shrunken log2 fold change” value came to 0.0328.

In the case of RRIRCRPPRLPRPRPRPPPFPRP, the “shrunken log2 fold change” value was determined as 2.05.

As to RRIRTRPPRLPRPRPRPTEEPRP, the “shrunken log2 fold change” value was 0.12.

Consider RRIRMRPPRLPRPRPRPLHVPRP, for which the “shrunken log2 fold change” value was -0.21.

In the case of RRIRHRPPRLPRPRPRPDSHPRP, the “shrunken log2 fold change” value is -0.0191.

Take RRIRWRPPRLPRPRPRPIPCPRP: the “shrunken log2 fold change” value was -0.0198.

Regarding RRIRRRPPRLPRPRPRPWWHPRP, the “shrunken log2 fold change” value came to 0.0484.

As for RRIRKRPPRLPRPRPRPCGMPRP, the “shrunken log2 fold change” value is 0.858.

RRIRERPPRLPRPRPRPRAWPRP: the “shrunken log2 fold change” value is 0.195.

As to RRIRARPPRLPRPRPRPNRRPRP, the “shrunken log2 fold change” value was 0.366.

Regarding RRIRDRPPRLPRPRPRPGSDPRP, the “shrunken log2 fold change” value was 0.461.

With RRIRRRPPRLPRPRPRPITYPRP, the “shrunken log2 fold change” value was -0.0184.

In the case of RRIRSRPPRLPRPRPRPHVNPRP, the “shrunken log2 fold change” value is -0.259.

Turning to RRIRRRPPRLPRPRPRPNKGPRP, the “shrunken log2 fold change” value came to 0.128.

On to RRIRCRPPRLPRPRPRPLPWPRP, for which the “shrunken log2 fold change” value is 0.195.

In the case of RRIRQRPPRLPRPRPRPMPCPRP, the “shrunken log2 fold change” value is -0.00136.

With RRIRCRPPRLPRPRPRPPMPPRP, the “shrunken log2 fold change” value stood at 0.45.

In the case of RRIRARPPRLPRPRPRPNIYPRP, the “shrunken log2 fold change” value was -0.418.

Turning to RRIRHRPPRLPRPRPRPMVNPRP, the “shrunken log2 fold change” value was -0.469.

For the sequence RRIRARPPRLPRPRPRPGPYPRP, the “shrunken log2 fold change” value was 1.85.

Take RRIRDRPPRLPRPRPRPHSQPRP: the “shrunken log2 fold change” value is -0.0254.

For the sequence RRIRGRPPRLPRPRPRPTHNPRP, the “shrunken log2 fold change” value was 0.443.

For the sequence RRIRRRPPRLPRPRPRPALEPRP, the “shrunken log2 fold change” value is 0.264.

For the sequence RRIRERPPRLPRPRPRPWFNPRP, the “shrunken log2 fold change” value is -0.599.

Regarding RRIRKRPPRLPRPRPRPIIKPRP, the “shrunken log2 fold change” value stood at 0.232.

For RRIRYRPPRLPRPRPRPVWRPRP, the “shrunken log2 fold change” value is 0.119.

On to RRIRARPPRLPRPRPRPAPQPRP, for which the “shrunken log2 fold change” value worked out at 0.932.

For RRIRKRPPRLPRPRPRPRITPRP, the “shrunken log2 fold change” value worked out at 0.227.

As to RRIRKRPPRLPRPRPRPFDPPRP, the “shrunken log2 fold change” value is -0.145.

Turning to RRIRPRPPRLPRPRPRPALAPRP, the “shrunken log2 fold change” value turned out to be 0.412.

For RRIRGRPPRLPRPRPRPCNTPRP, the “shrunken log2 fold change” value came out at 0.00375.

Consider RRIRLRPPRLPRPRPRPICGPRP, for which the “shrunken log2 fold change” value is -0.0025.

In the case of RRIRRRPPRLPRPRPRPSFDPRP, the “shrunken log2 fold change” value was found to be 0.135.

For the sequence RRIRARPPRLPRPRPRPVQGPRP, the “shrunken log2 fold change” value came out at 0.47.

For the sequence RRIRDRPPRLPRPRPRPLHAPRP, the “shrunken log2 fold change” value came to 0.317.

Take RRIRPRPPRLPRPRPRPHENPRP: the “shrunken log2 fold change” value is -0.0875.

For RRIRRRPPRLPRPRPRPMEIPRP, the “shrunken log2 fold change” value was -0.0055.

For RRIRWRPPRLPRPRPRPYTYPRP, the “shrunken log2 fold change” value was -0.329.

RRIRRRPPRLPRPRPRPSHWPRP: the “shrunken log2 fold change” value was determined as 0.183.

On to RRIRYRPPRLPRPRPRPCCHPRP, for which the “shrunken log2 fold change” value is -1.36.

Take RRIRDRPPRLPRPRPRPNLDPRP: the “shrunken log2 fold change” value was -0.103.

As to RRIRWRPPRLPRPRPRPFECPRP, the “shrunken log2 fold change” value is -0.01.

Take RRIRDRPPRLPRPRPRPGPIPRP: the “shrunken log2 fold change” value is -0.0864.

Turning to RRIRPRPPRLPRPRPRPEGAPRP, the “shrunken log2 fold change” value is 0.713.

Consider RRIRMRPPRLPRPRPRPTECPRP, for which the “shrunken log2 fold change” value amounted to 0.0996.

Consider RRIRARPPRLPRPRPRPHMIPRP, for which the “shrunken log2 fold change” value amounted to 0.028.

With RRIRKRPPRLPRPRPRPDDKPRP, the “shrunken log2 fold change” value was 0.107.

For RRIRKRPPRLPRPRPRPRQLPRP, the “shrunken log2 fold change” value was found to be 0.8.

In the case of RRIRHRPPRLPRPRPRPDHKPRP, the “shrunken log2 fold change” value was -0.274.

In the case of RRIRKRPPRLPRPRPRPVKHPRP, the “shrunken log2 fold change” value is -0.0571.

As for RRIRGRPPRLPRPRPRPGGTPRP, the “shrunken log2 fold change” value turned out to be 1.09.

With RRIRSRPPRLPRPRPRPVNFPRP, the “shrunken log2 fold change” value was -0.262.

For RRIRCRPPRLPRPRPRPMGGPRP, the “shrunken log2 fold change” value came to 0.145.

Regarding RRIRCRPPRLPRPRPRPPPSPRP, the “shrunken log2 fold change” value amounted to 1.61.

For the sequence RRIRMRPPRLPRPRPRPINNPRP, the “shrunken log2 fold change” value was -0.347.

RRIRFRPPRLPRPRPRPTPYPRP: the “shrunken log2 fold change” value came to 0.0647.

Take RRIRERPPRLPRPRPRPISEPRP: the “shrunken log2 fold change” value was -0.0562.

Regarding RRIRGRPPRLPRPRPRPSKLPRP, the “shrunken log2 fold change” value worked out at 0.0492.

Take RRIRMRPPRLPRPRPRPSQIPRP: the “shrunken log2 fold change” value was -0.03.

On to RRIRTRPPRLPRPRPRPSHMPRP, for which the “shrunken log2 fold change” value is -0.7.

Regarding RRIRLRPPRLPRPRPRPEEWPRP, the “shrunken log2 fold change” value was determined as 0.119.

For the sequence RRIRDRPPRLPRPRPRPHAIPRP, the “shrunken log2 fold change” value is -0.0018.

In the case of RRIRDRPPRLPRPRPRPMYKPRP, the “shrunken log2 fold change” value was -0.363.

As to RRIRQRPPRLPRPRPRPFGTPRP, the “shrunken log2 fold change” value was -0.1.

For RRIRWRPPRLPRPRPRPRHSPRP, the “shrunken log2 fold change” value came out at 0.286.

In the case of RRIRTRPPRLPRPRPRPSAQPRP, the “shrunken log2 fold change” value stood at 0.0735.

For RRIRNRPPRLPRPRPRPFASPRP, the “shrunken log2 fold change” value was -0.0512.

In the case of RRIRCRPPRLPRPRPRPYAVPRP, the “shrunken log2 fold change” value is -0.349.

Turning to RRIRNRPPRLPRPRPRPDKWPRP, the “shrunken log2 fold change” value is -0.258.

Regarding RRIRCRPPRLPRPRPRPPKNPRP, the “shrunken log2 fold change” value worked out at 0.5.

Regarding RRIRYRPPRLPRPRPRPDWTPRP, the “shrunken log2 fold change” value was 0.0173.

In the case of RRIRHRPPRLPRPRPRPPKSPRP, the “shrunken log2 fold change” value stood at 0.398.

Consider RRIRMRPPRLPRPRPRPQSAPRP, for which the “shrunken log2 fold change” value worked out at 0.055.

On to RRIRARPPRLPRPRPRPVICPRP, for which the “shrunken log2 fold change” value amounted to 0.408.

On to RRIRNRPPRLPRPRPRPRVQPRP, for which the “shrunken log2 fold change” value is -0.00489.

As for RRIRQRPPRLPRPRPRPFRGPRP, the “shrunken log2 fold change” value turned out to be 0.113.

Turning to RRIRDRPPRLPRPRPRPINAPRP, the “shrunken log2 fold change” value stood at 0.00476.

With RRIRWRPPRLPRPRPRPARWPRP, the “shrunken log2 fold change” value is 1.07.

Turning to RRIRARPPRLPRPRPRPPHCPRP, the “shrunken log2 fold change” value came to 0.521.

As for RRIRKRPPRLPRPRPRPKKFPRP, the “shrunken log2 fold change” value turned out to be 0.0892.

On to RRIRKRPPRLPRPRPRPENKPRP, for which the “shrunken log2 fold change” value amounted to 0.528.

Consider RRIRARPPRLPRPRPRPISHPRP, for which the “shrunken log2 fold change” value is -0.131.

With RRIRNRPPRLPRPRPRPYSQPRP, the “shrunken log2 fold change” value was -0.0488.

Turning to RRIRRRPPRLPRPRPRPAMVPRP, the “shrunken log2 fold change” value came to 0.00501.

RRIRCRPPRLPRPRPRPCWIPRP: the “shrunken log2 fold change” value was -0.464.

Consider RRIRTRPPRLPRPRPRPNAFPRP, for which the “shrunken log2 fold change” value was -0.0622.

For RRIRMRPPRLPRPRPRPWFHPRP, the “shrunken log2 fold change” value was -0.121.

RRIRHRPPRLPRPRPRPCKHPRP: the “shrunken log2 fold change” value is -1.38.

As for RRIRHRPPRLPRPRPRPECVPRP, the “shrunken log2 fold change” value worked out at 0.321.

With RRIRFRPPRLPRPRPRPFEVPRP, the “shrunken log2 fold change” value is -0.571.

In the case of RRIRLRPPRLPRPRPRPGFPPRP, the “shrunken log2 fold change” value is -0.2.

In the case of RRIRNRPPRLPRPRPRPRIAPRP, the “shrunken log2 fold change” value was 0.069.

In the case of RRIRKRPPRLPRPRPRPNIAPRP, the “shrunken log2 fold change” value was determined as 0.262.

For the sequence RRIRWRPPRLPRPRPRPAIAPRP, the “shrunken log2 fold change” value came to 0.242.

As for RRIRGRPPRLPRPRPRPDTTPRP, the “shrunken log2 fold change” value worked out at 0.903.

Turning to RRIRYRPPRLPRPRPRPPGNPRP, the “shrunken log2 fold change” value was -0.0342.

Turning to RRIRARPPRLPRPRPRPYLVPRP, the “shrunken log2 fold change” value turned out to be 0.0333.

With RRIRTRPPRLPRPRPRPNTTPRP, the “shrunken log2 fold change” value is -0.164.

RRIRPRPPRLPRPRPRPCPIPRP: the “shrunken log2 fold change” value amounted to 0.082.

Turning to RRIRPRPPRLPRPRPRPDMCPRP, the “shrunken log2 fold change” value turned out to be 0.00204.

As to RRIRRRPPRLPRPRPRPYMFPRP, the “shrunken log2 fold change” value is -0.448.

As for RRIRIRPPRLPRPRPRPVHAPRP, the “shrunken log2 fold change” value turned out to be 0.0769.

For the sequence RRIRARPPRLPRPRPRPKWVPRP, the “shrunken log2 fold change” value is 0.222.

In the case of RRIRLRPPRLPRPRPRPWCHPRP, the “shrunken log2 fold change” value is -0.441.

RRIRWRPPRLPRPRPRPNMLPRP: the “shrunken log2 fold change” value turned out to be 0.0876.

On to RRIRMRPPRLPRPRPRPIKLPRP, for which the “shrunken log2 fold change” value stood at 0.0649.

As to RRIRWRPPRLPRPRPRPLSFPRP, the “shrunken log2 fold change” value is -0.0327.

With RRIRWRPPRLPRPRPRPLQSPRP, the “shrunken log2 fold change” value was found to be 0.153.

For the sequence RRIRFRPPRLPRPRPRPYFRPRP, the “shrunken log2 fold change” value is -0.134.

On to RRIRFRPPRLPRPRPRPMYHPRP, for which the “shrunken log2 fold change” value was -1.01.

As to RRIRKRPPRLPRPRPRPHCIPRP, the “shrunken log2 fold change” value is -0.165.

For the sequence RRIRYRPPRLPRPRPRPAWEPRP, the “shrunken log2 fold change” value was 1.86.

As for RRIRERPPRLPRPRPRPAKHPRP, the “shrunken log2 fold change” value was -0.107.

In the case of RRIRSRPPRLPRPRPRPFWCPRP, the “shrunken log2 fold change” value was -0.0118.

Turning to RRIRERPPRLPRPRPRPKHRPRP, the “shrunken log2 fold change” value was -0.457.

Take RRIRTRPPRLPRPRPRPSKGPRP: the “shrunken log2 fold change” value was -0.605.

Take RRIRNRPPRLPRPRPRPPNLPRP: the “shrunken log2 fold change” value was -0.166.

With RRIRKRPPRLPRPRPRPHTLPRP, the “shrunken log2 fold change” value was -0.168.

Turning to RRIRKRPPRLPRPRPRPKEWPRP, the “shrunken log2 fold change” value came out at 0.222.

Take RRIRMRPPRLPRPRPRPGQCPRP: the “shrunken log2 fold change” value came to 0.234.

Regarding RRIRCRPPRLPRPRPRPFITPRP, the “shrunken log2 fold change” value was -0.639.

As for RRIRMRPPRLPRPRPRPNLVPRP, the “shrunken log2 fold change” value is 0.288.

With RRIRVRPPRLPRPRPRPTNSPRP, the “shrunken log2 fold change” value was -0.436.

Take RRIRPRPPRLPRPRPRPVIVPRP: the “shrunken log2 fold change” value is -0.212.

Turning to RRIRHRPPRLPRPRPRPRKWPRP, the “shrunken log2 fold change” value was -0.0137.
